These results are taken from paper PMC9258321, “Structure-guided design of CPPC-paired disulfide-rich peptide libraries for ligand and drug discovery†” (Chemical Science, 2022).

For the test, the target named is T1, Kelch domain of Keap1.
T1 construct: Keap1, Kelch domain; The Kelch domain is named for the phage selection; the SPR sentences say only 'Keap1'
Briefly: SPR; Keap1 with oxidized peptides, concentration-dependent. The following applies: both partners purified.

Ends that are not written are not given here.

B1: drp5-a (peptide)
chain: CPPCHGRPTCDEETGECWELLTCPPC
modifications: disulfide (positions not given here); also: oxidized (disulfides), pairing of this isomer not given here
For the molecule B1, the dissociation constant Kd came to 153 nM.

A word on the Kd: it is the free concentration of one partner at which half of the binding sites on the other are occupied at equilibrium, for simple one-to-one binding. Low values mean tighter binding, high ones weaker binding.
